From patent publication US20260242735A1 (UNIVERSIT T BASEL, published 2026)

B1: Refmab #5 (antibody, V domains shown)
VH: QVQLVQSGAEVKKPGASVKVSCKASGYTFTNYDINWVRQAPGQGLEWIGWIYPGDGSTKYNEKFKAKATLTADTSTSTAYMELRSLRSDDTAVYYCASGYEDAMDYWGQGTTVTVSS
VL: DIQMTQSPSSLSASVGDRVTINCKASQDINSYLSWFQQKPGKAPKTLIYRANRLVDGVPSRFSGSGSGQDYTLTISSLQPEDFATYYCLQYDEFPLTFGGGTKVEIK
notes: Full-length format is human IgG1 Fc silent (PG-LALA); also made as Fab; The alanine scan used IgG or Fab
B2: Refmab #5 (antibody, V domains shown)
VH: B1 VH
VL: B1 VL
notes: The alanine scan used IgG or Fab
B3: Refmab #6 (antibody, V domains shown)
VH: QVQLQQPGAEVVKPGASVKMSCKASGYTFTSYYIHWIKQTPGQGLEWVGVIYPGNDDISYNQKFQGKATLTADKSSTTAYMQLSSLTSEDSAVYYCAREVRLRYFDVWGQGTTVTVSS
VL: EIVLTQSPGSLAVSPGERVTMSCKSSQSVFFSSSQKNYLAWYQQIPGQSPRLLIYWASTRESGVPDRFTGSGSGTDFTLTISSVQPEDLAIYYCHQYLSSRTFGQGTKLEIK
notes: as for B1
B4: Refmab #6 (antibody, V domains shown)
VH: B3 VH
VL: B3 VL
notes: as for B2

Key:
human CD33 P201A = human CD33 P201A (human, UniProt P20138 18-364); assay: alanine scan, flow cytometry;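 note: HEK293-T cells transiently expressing single-residue alanine mutants of CD33 (alanine swapped to serine), antibody binding read by fluorescence in duplicate, background-subtracted, expressed relative to wild-type CD33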
human CD33 P201A, sequence (P20138 18-364 P201A limits assumed): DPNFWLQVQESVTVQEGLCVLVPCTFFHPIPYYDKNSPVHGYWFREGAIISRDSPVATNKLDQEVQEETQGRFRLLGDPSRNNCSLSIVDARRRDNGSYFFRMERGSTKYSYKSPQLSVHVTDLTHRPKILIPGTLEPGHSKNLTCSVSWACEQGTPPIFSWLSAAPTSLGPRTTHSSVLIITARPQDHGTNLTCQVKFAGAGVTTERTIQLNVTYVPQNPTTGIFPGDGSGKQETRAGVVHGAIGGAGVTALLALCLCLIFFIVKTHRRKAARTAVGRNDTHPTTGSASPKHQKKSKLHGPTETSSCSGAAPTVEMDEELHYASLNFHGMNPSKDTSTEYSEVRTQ
Protocol: (§1) An alanine scan on human CD33 was performed to the determine the residues on CD33 that are involved in binding to the antibodies investigated. […] Briefly, a mutation library of CD33 was created by high-throughput, site-directed mutagenesis. Each residue was individually mutated to alanine, with alanine codons mutated to serine. The mutant library was arrayed in 384-well microplates and transiently transfected into HEK293-T. Following transfection, cells were incubated with the indicated antibodies (IgG or Fab) at concentrations pre-determined using an independent immunofluorescence titration curve on wild type CD33. […] Binding of each antibody to each mutant clone was determined in duplicates. For each point, background fluorescence was subtracted from the raw data, which were then normalized to antibody reactivity with wild type CD33.
(§2) Critical residues for antibody binding (outlined in dark grey) were residues whose mutations led to a binding of the test Abs of less than 20%. Additional secondary residues (outlined in light grey) were identified that led to a binding of the test Abs of between 20 and 40% as compared to the wild type CD33.

human CD33 R202A = human CD33 R202A (human, UniProt P20138 18-364); assay: alanine scan, flow cytometry;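 note: HEK293-T cells transiently expressing single-residue alanine mutants of CD33 (alanine swapped to serine), antibody binding read by fluorescence in duplicate, background-subtracted, expressed relative to wild-type CD33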
human CD33 R202A, sequence (P20138 18-364 R202A limits assumed): as the sequence (P20138 18-364 P201A limits assumed) above, with A184P, R185A counted along it
Protocol: as §1, §2

human CD33 H206A = human CD33 H206A (human, UniProt P20138 18-364); assay: alanine scan, flow cytometry;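 note: HEK293-T cells transiently expressing single-residue alanine mutants of CD33 (alanine swapped to serine), antibody binding read by fluorescence in duplicate, background-subtracted, expressed relative to wild-type CD33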
human CD33 H206A, sequence (P20138 18-364 H206A limits assumed): as the sequence (P20138 18-364 P201A limits assumed) above, with A184P, H189A counted along it
Protocol: as §1, §2

human CD33 T208A = human CD33 T208A (human, UniProt P20138 18-364); assay: alanine scan, flow cytometry;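 note: HEK293-T cells transiently expressing single-residue alanine mutants of CD33 (alanine swapped to serine), antibody binding read by fluorescence in duplicate, background-subtracted, expressed relative to wild-type CD33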
Protocol: as §1, §2

human CD33 K215A = human CD33 K215A (human, UniProt P20138 18-364); assay: alanine scan, flow cytometry
Protocol: as §1, §2

human CD33 A219S = human CD33 A219S (human, UniProt P20138 18-364); assay: alanine scan, flow cytometry
Protocol: as §1, §2

human CD33 V221A = human CD33 V221A (human, UniProt P20138 18-364); assay: alanine scan, flow cytometry
human CD33 V221A, sequence (P20138 18-364 V221A limits assumed): as the sequence (P20138 18-364 P201A limits assumed) above, with A184P, V204A counted along it
Protocol: as §1, §2

human CD33 V231A = human CD33 V231A (human, UniProt P20138 18-364); assay: alanine scan, flow cytometry
Protocol: as §1, §2

human CD33 T240A = human CD33 T240A (human, UniProt P20138 18-364); assay: alanine scan, flow cytometry
Protocol: as §1, §2

human CD33 V196A = human CD33 V196A (human, UniProt P20138 18-364); assay: alanine scan, flow cytometry
Protocol: as §1, §2

human CD33 F243A = human CD33 F243A (human, UniProt P20138 18-364); assay: alanine scan, flow cytometry
human CD33 F243A, sequence (P20138 18-364 F243A limits assumed): as the sequence (P20138 18-364 P201A limits assumed) above, with A184P, F226A counted along it
Protocol: as §1, §2

human CD33 G245A = human CD33 G245A (human, UniProt P20138 18-364); assay: alanine scan, flow cytometry
human CD33 G245A, sequence (P20138 18-364 G245A limits assumed): as the sequence (P20138 18-364 P201A limits assumed) above, with A184P, G228A counted along it
Protocol: as §1, §2

human CD33 Q251A = human CD33 Q251A (human, UniProt P20138 18-364); assay: alanine scan, flow cytometry
Protocol: as §1, §2

human CD33 T253A = human CD33 T253A (human, UniProt P20138 18-364); assay: alanine scan, flow cytometry
human CD33 T253A, sequence (P20138 18-364 T253A limits assumed): as the sequence (P20138 18-364 P201A limits assumed) above, with A184P, T236A counted along it
Protocol: as §1, §2

human CD33 G256A = human CD33 G256A (human, UniProt P20138 18-364); assay: alanine scan, flow cytometry
human CD33 G256A, sequence (P20138 18-364 G256A limits assumed): as the sequence (P20138 18-364 P201A limits assumed) above, with A184P, G239A counted along it
Protocol: as §1, §2

human CD33 V267A = human CD33 V267A (human, UniProt P20138 18-364); assay: alanine scan, flow cytometry
Protocol: as §1, §2

human CD33 L275A = human CD33 L275A (human, UniProt P20138 18-364); assay: flow cytometry, HEK293-T, alanine scan;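 note: transiently transfected HEK293-T cells expressing single alanine mutants of human CD33 (alanine residues changed to serine), antibody binding fluorescence minus background, relative to wild type CD33, mean of duplicates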
Protocol: as §1, §2

human CD33 I281A = human CD33 I281A (human, UniProt P20138 18-364); assay: flow cytometry, HEK293-T, alanine scan;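 note: transiently transfected HEK293-T cells expressing single alanine mutants of human CD33 (alanine residues changed to serine), antibody binding fluorescence minus background, relative to wild type CD33, mean of duplicates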
Protocol: as §1, §2

human CD33 V282A = human CD33 V282A (human, UniProt P20138 18-364); assay: flow cytometry, HEK293-T, alanine scan;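 note: transiently transfected HEK293-T cells expressing single alanine mutants of human CD33 (alanine residues changed to serine), antibody binding fluorescence minus background, relative to wild type CD33, mean of duplicates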
Protocol: as §1, §2

human CD33 T284A = human CD33 T284A (human, UniProt P20138 18-364); assay: flow cytometry, HEK293-T, alanine scan;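 note: transiently transfected HEK293-T cells expressing single alanine mutants of human CD33 (alanine residues changed to serine), antibody binding fluorescence minus background, relative to wild type CD33, mean of duplicates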
human CD33 T284A, sequence (P20138 18-364 T284A limits assumed): as the sequence (P20138 18-364 P201A limits assumed) above, with A184P, T267A counted along it
Protocol: as §1, §2

human CD33 H285A = human CD33 H285A (human, UniProt P20138 18-364); assay: flow cytometry, HEK293-T, alanine scan
human CD33 H285A, sequence (P20138 18-364 H285A limits assumed): as the sequence (P20138 18-364 P201A limits assumed) above, with A184P, H268A counted along it
Protocol: as §1, §2

human CD33 R286A = human CD33 R286A (human, UniProt P20138 18-364); assay: flow cytometry, HEK293-T, alanine scan
human CD33 R286A, sequence (P20138 18-364 R286A limits assumed): as the sequence (P20138 18-364 P201A limits assumed) above, with A184P, R269A counted along it
Protocol: as §1, §2

human CD33 A306S = human CD33 A306S (human, UniProt P20138 18-364); assay: flow cytometry, HEK293-T, alanine scan
Protocol: as §1, §2

human CD33 S307A = human CD33 S307A (human, UniProt P20138 18-364); assay: flow cytometry, HEK293-T, alanine scan
Protocol: as §1, §2

human CD33 K309A = human CD33 K309A (human, UniProt P20138 18-364); assay: flow cytometry, HEK293-T, alanine scan
Protocol: as §1, §2

human CD33 H310A = human CD33 H310A (human, UniProt P20138 18-364); assay: flow cytometry, HEK293-T, alanine scan
human CD33 H310A, sequence (P20138 18-364 H310A limits assumed): as the sequence (P20138 18-364 P201A limits assumed) above, with A184P, H293A counted along it
Protocol: as §1, §2

human CD33 Q311A = human CD33 Q311A (human, UniProt P20138 18-364); assay: flow cytometry, HEK293-T, alanine scan
Protocol: as §1, §2

human CD33 K312A = human CD33 K312A (human, UniProt P20138 18-364); assay: flow cytometry, HEK293-T, alanine scan
Protocol: as §1, §2

human CD33 K313A = human CD33 K313A (human, UniProt P20138 18-364); assay: flow cytometry, HEK293-T, alanine scan
Protocol: as §1, §2

human CD33 H317A = human CD33 H317A (human, UniProt P20138 18-364); assay: flow cytometry, HEK293-T, alanine scan
Protocol: as §1, §2

human CD33 P319A = human CD33 P319A (human, UniProt P20138 18-364); assay: flow cytometry, HEK293-T, alanine scan
human CD33 P319A, sequence (P20138 18-364 P319A limits assumed): as the sequence (P20138 18-364 P201A limits assumed) above, with A184P, P302A counted along it
Protocol: as §1, §2

human CD33 L271A = human CD33 L271A (human, UniProt P20138 18-364); assay: flow cytometry, HEK293-T, alanine scan
Protocol: as §1, §2

human CD33 G327A = human CD33 G327A (human, UniProt P20138 18-364); assay: flow cytometry, HEK293-T, alanine scan
human CD33 G327A, sequence (P20138 18-364 G327A limits assumed): as the sequence (P20138 18-364 P201A limits assumed) above, with A184P, G310A counted along it
Protocol: as §1, §2

human CD33 P330A = human CD33 P330A (human, UniProt P20138 18-364); assay: flow cytometry, HEK293-T, alanine scan
Protocol: as §1, §2

human CD33 D335A = human CD33 D335A (human, UniProt P20138 18-364); assay: flow cytometry, HEK293-T, alanine scan
Protocol: as §1, §2

human CD33 E336A = human CD33 E336A (human, UniProt P20138 18-364); assay: flow cytometry, HEK293-T, alanine scan
Protocol: as §1, §2

human CD33 L343A = human CD33 L343A (human, UniProt P20138 18-364); assay: flow cytometry, HEK293-T, alanine scan
Protocol: as §1, §2

human CD33 N344A = human CD33 N344A (human, UniProt P20138 18-364); assay: flow cytometry, HEK293-T, alanine scan
Protocol: as §1, §2

| Binder | Mean % WT Binding (human CD33 P201A) [% WT binding] | Mean % WT Binding (human CD33 R202A) [% WT binding] | Mean % WT Binding (human CD33 H206A) [% WT binding] | Mean % WT Binding (human CD33 T208A) [% WT binding] | Mean % WT Binding (human CD33 K215A) [% WT binding] | Mean % WT Binding (human CD33 A219S) [% WT binding] | Mean % WT Binding (human CD33 V221A) [% WT binding] | Mean % WT Binding (human CD33 V231A) [% WT binding] | Mean % WT Binding (human CD33 T240A) [% WT binding] | Mean % WT Binding (human CD33 V196A) [% WT binding] | Mean % WT Binding (human CD33 F243A) [% WT binding] | Mean % WT Binding (human CD33 G245A) [% WT binding] | Mean % WT Binding (human CD33 Q251A) [% WT binding] | Mean % WT Binding (human CD33 T253A) [% WT binding] | Mean % WT Binding (human CD33 G256A) [% WT binding] | Mean % WT Binding (human CD33 V267A) [% WT binding] | Mean % WT Binding (human CD33 L275A) [% WT binding] | Mean % WT Binding (human CD33 I281A) [% WT binding] | Mean % WT Binding (human CD33 V282A) [% WT binding] | Mean % WT Binding (human CD33 T284A) [% WT binding] | other results |
| --- | --- | --- | --- | --- | --- | --- | --- | --- | --- | --- | --- | --- | --- | --- | --- | --- | --- | --- | --- | --- | --- |
| B1 | 111 | 123 | 108 | 100 | 103 | 93.7 | 116 | 88.2 | 96.9 | 84.5 | 103 | 110 | 94.7 | 94.6 | 87.6 | 95.2 |  |  |  |  |  |
| B2 |  |  |  |  |  |  |  |  |  |  |  |  |  |  |  |  | 86.4 | 115 | 112 | 103 | Mean % WT Binding (human CD33 H285A): 116 % WT binding; Mean % WT Binding (human CD33 R286A): 97.5 % WT binding; Mean % WT Binding (human CD33 A306S): 88.5 % WT binding; Mean % WT Binding (human CD33 S307A): 83 % WT binding; Mean % WT Binding (human CD33 K309A): 85.7 % WT binding; Mean % WT Binding (human CD33 H310A): 91.3 % WT binding; Mean % WT Binding (human CD33 Q311A): 126 % WT binding; Mean % WT Binding (human CD33 K312A): 94.7 % WT binding; Mean % WT Binding (human CD33 K313A): 118 % WT binding; Mean % WT Binding (human CD33 H317A): 71.9 % WT binding; Mean % WT Binding (human CD33 P319A): 70 % WT binding; Mean % WT Binding (human CD33 L271A): 84.9 % WT binding; Mean % WT Binding (human CD33 G327A): 98.7 % WT binding; Mean % WT Binding (human CD33 P330A): 90.3 % WT binding; Mean % WT Binding (human CD33 D335A): 86.2 % WT binding; Mean % WT Binding (human CD33 E336A): 90.5 % WT binding; Mean % WT Binding (human CD33 L343A): 77.8 % WT binding; Mean % WT Binding (human CD33 N344A): 87.9 % WT binding |
| B3 | 115 | 92.2 | 98.3 | 116 | 85.6 | 92 | 94.6 | 92.8 | 97 | 116 | 98.2 | 91.8 | 126 | 96.8 | 108 | 101 |  |  |  |  |  |
| B4 |  |  |  |  |  |  |  |  |  |  |  |  |  |  |  |  | 94.6 | 104 | 108 | 105 | Mean % WT Binding (human CD33 H285A): 103 % WT binding; Mean % WT Binding (human CD33 R286A): 95.6 % WT binding; Mean % WT Binding (human CD33 A306S): 99.2 % WT binding; Mean % WT Binding (human CD33 S307A): 116 % WT binding; Mean % WT Binding (human CD33 K309A): 98.8 % WT binding; Mean % WT Binding (human CD33 H310A): 94.9 % WT binding; Mean % WT Binding (human CD33 Q311A): 88.7 % WT binding; Mean % WT Binding (human CD33 K312A): 94.5 % WT binding; Mean % WT Binding (human CD33 K313A): 102 % WT binding; Mean % WT Binding (human CD33 H317A): 95.2 % WT binding; Mean % WT Binding (human CD33 P319A): 85.2 % WT binding; Mean % WT Binding (human CD33 L271A): 106 % WT binding; Mean % WT Binding (human CD33 G327A): 92.1 % WT binding; Mean % WT Binding (human CD33 P330A): 97.9 % WT binding; Mean % WT Binding (human CD33 D335A): 98.2 % WT binding; Mean % WT Binding (human CD33 E336A): 102 % WT binding; Mean % WT Binding (human CD33 L343A): 101 % WT binding; Mean % WT Binding (human CD33 N344A): 67.7 % WT binding |
